Measurements taken from the supplement of paper PMC10567573.

B1: TRAF3IP2 (parent)
chain: APWNYHYHCPGSPDHQVPYGHDYP
B2: NETO1 (parent)
chain: GFSPIIGRFCGQQNPPVIKSSGRF

Variants of: B1
Assay: protein stability index of a GFP-peptide fusion (GPS, HEK-293T) (PSI 1-6); higher = more stable
Conditions: c terminus: a fixed tail appended
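Also: lentivirally expressed fusions sorted by FACS into six bins by GFP to DsRed ratio, PSI derived from sequencing read proportions per bin multiplied by bin number.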

Variant | protein stability index
AYWNYHYHCPGSPDHQVPYGHDYP | 1.51
ALWNYHYHCPGSPDHQVPYGHDYP | 1.76
AEWNYHYHCPGSPDHQVPYGHDYP | 3.07
ATWNYHYHCPGSPDHQVPYGHDYP | 2.21
AAWNYHYHCPGSPDHQVPYGHDYP | 2.66
AQWNYHYHCPGSPDHQVPYGHDYP | 2.35
ANWNYHYHCPGSPDHQVPYGHDYP | 3.37
AVWNYHYHCPGSPDHQVPYGHDYP | 2.45
APWNYHYHCGGSPDHQVPYGHDYP | 1.71
APWNYHYHCCGSPDHQVPYGHDYP | 1.5
APWNYHYHCWGSPDHQVPYGHDYP | 1.46
APWNYHYHCLGSPDHQVPYGHDYP | 1.54
APWNYHYHCEGSPDHQVPYGHDYP | 2.27
APWNYHYHCHGSPDHQVPYGHDYP | 1.96
APWNYHYHCVGSPDHQVPYGHDYP | 2.09
TPWNYHYHCPGSPDHQVPYGHDYP | 1.87
PPWNYHYHCPGSPDHQVPYGHDYP | 2.71
QPWNYHYHCPGSPDHQVPYGHDYP | 1.53
KPWNYHYHCPGSPDHQVPYGHDYP | 2.81
IPWNYHYHCPGSPDHQVPYGHDYP | 1.71
GPWNYHYHCPGSPDHQVPYGHDYP | 3.39
APWNYHYHCPGSPDHAVPYGHDYP | 2.64
APWNYHYHCPGSPDHLVPYGHDYP | 1.89

Variant | protein stability index
APWNYHYHCPGSPDHSVPYGHDYP | 3.2
APWNYHYHCPGSPDHQVPYGVDYP | 1.54
APWNYHYHCPGSPDHQVPYGKDYP | 2.48
APWNYHYHCPGSPDHQVPYGEDYP | 2.55
APWNYHYHCPGSPDHQVPYGWDYP | 2.69
APWNYHYHCPGSPDHQVPYGADYP | 2.22
APWNYHYHCPGSPDHQVPYGPDYP | 2.48
APWNYHYHCPGSPDHQVPYGNDYP | 2.39
APWNYHYHCPGSPDHQVPYGRDYP | 2.4
APWNYHYKCPGSPDHQVPYGHDYP | 1.73
APWNYHYACPGSPDHQVPYGHDYP | 2.06
APWNYHYGCPGSPDHQVPYGHDYP | 2.12
APWNYHYICPGSPDHQVPYGHDYP | 2.08
APWNYHYLCPGSPDHQVPYGHDYP | 2.2
APWNYHYYCPGSPDHQVPYGHDYP | 1.84
APWNYHYFCPGSPDHQVPYGHDYP | 2.22
APWNYHYDCPGSPDHQVPYGHDYP | 2.9
APWNYHYQCPGSPDHQVPYGHDYP | 2.82
APWNYHYHCPGSPDHQVHYGHDYP | 2.17
APWNYHYHCPGSPDHQVFYGHDYP | 2.23
APWNYHYHCPGSPDHQVIYGHDYP | 1.93
APWNYHYHCPGSPDHQVSYGHDYP | 1.67
APWNYHYHCPGSPDHQVMYGHDYP | 2.56

Variant | protein stability index
APWNYHYHCPGSPDHQVYYGHDYP | 2.16
APWNYHYHCPGSPAHQVPYGHDYP | 1.93
APWNYHYHCPGSPSHQVPYGHDYP | 2.26
APWNYHYHCPGSPWHQVPYGHDYP | 2.32
APWNYHYHCPGSPMHQVPYGHDYP | 1.84
APWNYHYHCPGSPGHQVPYGHDYP | 2.1
APWNYHYHCPGSPKHQVPYGHDYP | 2
APWNYHYHCPGSPQHQVPYGHDYP | 2.46
APWNYHYHCPKSPDHQVPYGHDYP | 1.92
APWNYHYHCPASPDHQVPYGHDYP | 2.55
APWNYHYHCPVSPDHQVPYGHDYP | 2.08
APWNYHYHCPMSPDHQVPYGHDYP | 3.15
APWNYHYHCPCSPDHQVPYGHDYP | 2.02
APWNYHYHCPTSPDHQVPYGHDYP | 2.18
APWNYHYHCPYSPDHQVPYGHDYP | 1.37
APWNYHYHCPGSKDHQVPYGHDYP | 1.84
APWNYHYHCPGSLDHQVPYGHDYP | 2.16
APWNYHYHCPGSQDHQVPYGHDYP | 2.5
APWNYHYHCPGSYDHQVPYGHDYP | 1.63
APWNYHYHCPGFPDHQVPYGHDYP | 1.7
APWNYHYHCPGRPDHQVPYGHDYP | 2.47
APWNYHYHCPGAPDHQVPYGHDYP | 2.07
APWNYHYHCPGNPDHQVPYGHDYP | 1.6

Variant | protein stability index
APWNYHYHCPGDPDHQVPYGHDYP | 2.49
APWNYHYHCPGCPDHQVPYGHDYP | 2.75
APWNYHYHCPGKPDHQVPYGHDYP | 2.21
APWNYHYHCPGVPDHQVPYGHDYP | 2.2
APWNYHYHCPGMPDHQVPYGHDYP | 1.96
APWNYHYHCPGWPDHQVPYGHDYP | 2
APWNYHHHCPGSPDHQVPYGHDYP | 3.42
APWNYHAHCPGSPDHQVPYGHDYP | 3.15
APWNYHPHCPGSPDHQVPYGHDYP | 3.29
APWNYHNHCPGSPDHQVPYGHDYP | 3.4
APWNYHEHCPGSPDHQVPYGHDYP | 3.6
APWNYHKHCPGSPDHQVPYGHDYP | 2.91
APWNYHMHCPGSPDHQVPYGHDYP | 1.5
APWNYHWHCPGSPDHQVPYGHDYP | 1.99
APWNYHIHCPGSPDHQVPYGHDYP | 2.52
APWNYHYHCPGSPDHQVPYTHDYP | 2.66
APWNYHYHCPGSPDHQVPYYHDYP | 2.15
APWNYHYHCPGSPDHQVPYKHDYP | 2.65
APWNYHYHCPGSPDHQVPYLHDYP | 1.74
APWNYHYHCPGSPDHQVPMGHDYP | 2.23
APWNYHYHCPGSPDHQVPEGHDYP | 2.8
APWNYHYHCPGSPDHQVPQGHDYP | 3.09
APWNYHYHCPGSPDHQVPCGHDYP | 1.91

Variant | protein stability index
APWNYHYHCPGSPDHQVPFGHDYP | 1.87
APWNYHYHCPGSPDHQVPGGHDYP | 2.41
APWNYHYHCPGSPDHQVPYGHDAP | 2.85
APWNYHYHCPGSPDHQVPYGHDSP | 2.85
APWNYHYHCPGSPDHQVPYGHDQP | 2.92
APWNYHYHCPGSPDHQVPYGHDWP | 1.68
APWNYHYHCPGSPDHQVPYGHDEP | 3.61
APWNYHYHCPGSPDHQVPYGHDIP | 2.3
APWYYHYHCPGSPDHQVPYGHDYP | 2.54
APWGYHYHCPGSPDHQVPYGHDYP | 2
APWEYHYHCPGSPDHQVPYGHDYP | 3.39
APWQYHYHCPGSPDHQVPYGHDYP | 3.04
APWNYHYHCPGSPDKQVPYGHDYP | 2.65
APWNYHYHCPGSPDLQVPYGHDYP | 1.95
APWNYHYHCPGSPDGQVPYGHDYP | 2.73
APWNYHYHCPGSPDDQVPYGHDYP | 2.56
APWNYHYHCPGSPDYQVPYGHDYP | 2.14
APWNYHYHCPGSPDRQVPYGHDYP | 2.1
APWNYHYHCPGSPDQQVPYGHDYP | 2.13
APWNYHYHCPGSPDPQVPYGHDYP | 2.23
APWNYHYHCPGSPDWQVPYGHDYP | 1.46
APMNYHYHCPGSPDHQVPYGHDYP | 3.08
APLNYHYHCPGSPDHQVPYGHDYP | 3.03

Variant | protein stability index
APGNYHYHCPGSPDHQVPYGHDYP | 3.43
APDNYHYHCPGSPDHQVPYGHDYP | 4.04
APENYHYHCPGSPDHQVPYGHDYP | 4.48
APANYHYHCPGSPDHQVPYGHDYP | 3.6
APRNYHYHCPGSPDHQVPYGHDYP | 3.72
APVNYHYHCPGSPDHQVPYGHDYP | 2.52
APWNYHYHNPGSPDHQVPYGHDYP | 2.17
APWNYHYHIPGSPDHQVPYGHDYP | 1.85
APWNYHYHPPGSPDHQVPYGHDYP | 1.9
APWNYHYHSPGSPDHQVPYGHDYP | 2.52
APWNYHYHHPGSPDHQVPYGHDYP | 2.28
APWNYHYHWPGSPDHQVPYGHDYP | 1.78
APWNYHYHKPGSPDHQVPYGHDYP | 2.66
APWNYHYHRPGSPDHQVPYGHDYP | 2.52
APWNAHYHCPGSPDHQVPYGHDYP | 3.65
APWNKHYHCPGSPDHQVPYGHDYP | 3.14
APWNIHYHCPGSPDHQVPYGHDYP | 3.64
APWNPHYHCPGSPDHQVPYGHDYP | 3.84
APWNHHYHCPGSPDHQVPYGHDYP | 2.63
APWNFHYHCPGSPDHQVPYGHDYP | 2.19
APWNCHYHCPGSPDHQVPYGHDYP | 3.43
APWNQHYHCPGSPDHQVPYGHDYP | 2.94
APWNYHYHCPGSPDHQVPYGHDYS | 2.21

Variant | protein stability index
APWNYHYHCPGSPDHQVPYGHDYD | 3.88
APWNYHYHCPGSPDHQVPYGHDYQ | 2.28
APWNYHYHCPGSPDHQVPYGHDYV | 1.96
APWNYHYHCPGSPDHQVPYGHDYF | 2.01
APWNYHYHCPGSPDHQVPYGHDYN | 2.93
APWNYHYHCPGSPDHQVPYGHFYP | 1.55
APWNYHYHCPGSPDHQVPYGHAYP | 1.72
APWNYHYHCPGSPDHQVPYGHNYP | 1.36
APWNYHYHCPGSPDHQVPYGHIYP | 1.16
APWNYHYHCPGSPDHQWPYGHDYP | 2.08
APWNYHYHCPGSPDHQSPYGHDYP | 2.31
APWNYHYHCPGSPDHQDPYGHDYP | 2.62
APWNYHYHCPGSPDHQIPYGHDYP | 2.15
APWNYKYHCPGSPDHQVPYGHDYP | 2.97
APWNYRYHCPGSPDHQVPYGHDYP | 2.9
APWNYVYHCPGSPDHQVPYGHDYP | 1.94
APWNYSYHCPGSPDHQVPYGHDYP | 3.2
APWNYNYHCPGSPDHQVPYGHDYP | 3.15
APWNYGYHCPGSPDHQVPYGHDYP | 2.96
APWNYAYHCPGSPDHQVPYGHDYP | 2.73

Variants of: B2
Assay: as above
Conditions: c terminus: a fixed tail appended

Variant | protein stability index
GHSPIIGRFCGQQNPPVIKSSGRF | 2.15
GDSPIIGRFCGQQNPPVIKSSGRF | 2.68
GASPIIGRFCGQQNPPVIKSSGRF | 2.35
GMSPIIGRFCGQQNPPVIKSSGRF | 2
GLSPIIGRFCGQQNPPVIKSSGRF | 2.55
GKSPIIGRFCGQQNPPVIKSSGRF | 2.28
GGSPIIGRFCGQQNPPVIKSSGRF | 2.54
GESPIIGRFCGQQNPPVIKSSGRF | 3.09
GISPIIGRFCGQQNPPVIKSSGRF | 2.25
GCSPIIGRFCGQQNPPVIKSSGRF | 2.73
GNSPIIGRFCGQQNPPVIKSSGRF | 2.78
IFSPIIGRFCGQQNPPVIKSSGRF | 2
NFSPIIGRFCGQQNPPVIKSSGRF | 1.85
AFSPIIGRFCGQQNPPVIKSSGRF | 2.17
CFSPIIGRFCGQQNPPVIKSSGRF | 1.6
FFSPIIGRFCGQQNPPVIKSSGRF | 1.86
RFSPIIGRFCGQQNPPVIKSSGRF | 1.98
YFSPIIGRFCGQQNPPVIKSSGRF | 1.93
PFSPIIGRFCGQQNPPVIKSSGRF | 2.25
MFSPIIGRFCGQQNPPVIKSSGRF | 1.98
EFSPIIGRFCGQQNPPVIKSSGRF | 1.7
KFSPIIGRFCGQQNPPVIKSSGRF | 2.18
DFSPIIGRFCGQQNPPVIKSSGRF | 1.6
TFSPIIGRFCGQQNPPVIKSSGRF | 1.8
SFSPIIGRFCGQQNPPVIKSSGRF | 2.04
LFSPIIGRFCGQQNPPVIKSSGRF | 2.27
WFSPIIGRFCGQQNPPVIKSSGRF | 2.02
HFSPIIGRFCGQQNPPVIKSSGRF | 1.66
VFSPIIGRFCGQQNPPVIKSSGRF | 1.93
QFSPIIGRFCGQQNPPVIKSSGRF | 2.03
